Measured values: the supplement of paper PMC9732359
± gives the uncertainty stated by the source.

Assay: protein stability index of a GFP-peptide fusion (yeast GPS) (PSI 1-4); higher = more stable; sorted into four equal gates, so the index is relative within each strain
Summary of the method: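 Yeast carrying a pooled library were grown to mid-log phase in leucine-free medium. Each library plasmid expresses Cherry and has a tiled 17-residue yeast protein peptide fused downstream of GFP. Cells were sorted into four equal gates by GFP/Cherry ratio, and plasmids from each gate were PCR-amplified, Illumina-sequenced and assigned to strains by barcode. Summing, across gates, the read frequency times the gate number gave each peptide's protein stability index.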

| Sequence | protein stability index (doa10∆) | protein stability index (pdr5∆) | protein stability index (san1∆) | protein stability index (ubr1∆) |
| --- | --- | --- | --- | --- |
| YKRQKSSLLYTYDENDD [ESC2] | 1.25 ± 0.059 | 1.42 ± 0.07 | 1.17 ± 0.11 | 1.21 ± 0.06 |
| YNLRSLNLINAKLWFYI [RPN3] | 1.32 ± 0.046 | 1.24 ± 0.051 | 1.38 ± 0.083 | 1.48 ± 0.054 |
| KAEFSKEMTLQKNMNDL [YIL149C/MLP2] | 3.21 ± 0.053 | 3.3 ± 0.086 | 3.23 ± 0.09 | 3.07 ± 0.067 |
| DWVRFLALALGILYMGQ [RPN1] | 1.36 ± 0.096 | 1.45 ± 0.086 | 2.08 ± 0.14 | 1.24 ± 0.18 |
| SINGGIVVAMTGKDCVA [PUP3] |  | 2.39 ± 0.21 |  |  |
| KSKGDVDIKGEDLHEKN [NUT1] | 3.32 ± 0.27 |  | 3.44 ± 0.15 |  |
| CHDELKALPMLEQVEFE [MED4] | 3.17 ± 0.14 | 3.12 ± 0.3 | 2.7 ± 0.21 | 3.29 ± 0.12 |
| GSTFKVNQEFIFEAISL [YJL039C/NUP192] | 2.33 ± 0.1 | 2.31 ± 0.12 | 1.43 ± 0.15 | 1.49 ± 0.079 |
| IRFVCLSNCLANARDFG [BRR2] | 2.09 ± 0.053 | 1.81 ± 0.052 | 1.72 ± 0.074 | 2.24 ± 0.044 |
| PKDYIKKLLEVHDIFSK [CDC53] | 1.46 ± 0.042 | 2.04 ± 0.06 | 1.75 ± 0.099 | 1.66 ± 0.04 |
| NMNNGGKELDSLDLNNL [PGD1] | 3.06 ± 0.11 | 3.24 ± 0.11 | 3.06 ± 0.079 | 3.26 ± 0.065 |
| SWSNGKITSPIRSVALN [RRP42] | 2.62 ± 0.11 | 2.62 ± 0.089 | 2.66 ± 0.091 | 2.81 ± 0.073 |
| LSISVAAEPMDSKMIQD [SNU114] | 2.73 ± 0.061 | 3.03 ± 0.081 | 2.84 ± 0.077 | 3.18 ± 0.11 |
| PDRQSMDSRVAHGNILI [SRB5] | 3.14 ± 0.09 | 3.12 ± 0.064 | 3.02 ± 0.058 | 3.14 ± 0.05 |
| SDRSLSEDLFADGLLQV [BRR2] | 3.04 ± 0.28 |  |  |  |
| NKEMETQRIMTNVIAFA [YLR018C/POM34] | 2.33 ± 0.1 | 2.46 ± 0.07 | 1.99 ± 0.15 | 2.46 ± 0.058 |
| KEKEAAESPEEADVEMS [PUP2] | 3.41 ± 0.11 | 3.51 ± 0.11 | 2.99 ± 0.076 | 3.28 ± 0.071 |
| ANTGGQDKIELSEEETL [SNF2] | 2.62 ± 0.12 | 2.8 ± 0.25 | 3.08 ± 0.063 | 2.94 ± 0.12 |
| KGEQIAIFPYQDPIFGS [ECM29] | 2.09 ± 0.048 | 2.28 ± 0.053 | 2.37 ± 0.067 | 2.23 ± 0.039 |
| GQCRTELEGSFNKSAEL [YCS4] | 3.04 ± 0.09 | 2.51 ± 0.095 | 2.6 ± 0.1 | 2.9 ± 0.081 |
| WSHNGPFETFDHASIRR [CYT1] | 2.79 ± 0.06 | 3 ± 0.062 | 2.79 ± 0.051 | 2.96 ± 0.043 |
| LDRPEYLKKREAGEVKD [RPL10] | 3.27 ± 0.12 | 3.15 ± 0.15 | 3.35 ± 0.044 | 3.42 ± 0.084 |
| DTFYMNVESVGSIPVDQ [RPB3] | 2.9 ± 0.075 | 2.43 ± 0.056 | 2.67 ± 0.078 | 2.2 ± 0.12 |
| MSAVPSVQTFGKKKSAT [RPS16A] | 1.45 ± 0.1 | 1.32 ± 0.15 | 1.26 ± 0.26 | 1.22 ± 0.13 |
| RLNYLYQISAYQTRARQ [RPR2] | 1.56 ± 0.034 | 1.84 ± 0.037 | 1.85 ± 0.054 | 1.89 ± 0.035 |
| GVDDQILATNSLRILAK [YJL039C/NUP192] | 3.14 ± 0.13 | 3.08 ± 0.08 | 3.12 ± 0.069 | 3.24 ± 0.076 |
| ENYDDTELRQLFQENDD [DSN1] | 2.23 ± 0.072 | 2.63 ± 0.077 | 2.6 ± 0.096 | 2.55 ± 0.13 |
| ELLSKYKEQIIQGFYWA [SNU114] | 2.99 ± 0.073 | 2.4 ± 0.067 | 2.47 ± 0.077 | 2.17 ± 0.085 |
